The target of test [1] is ThsB2-His6 (Sau–Thoeris ThsB2 with a C-terminal hexahistidyl tag) (Staphylococcus aureus 08BA02176). Put plainly: SEC + other: mass photometry; complex assembled from individually purified subunits in the presence of NAD+; Superdex 200 Increase 10/300 GL, 25 mM Tris pH 7.5, 200 mM NaCl, 5% glycerol, 1 mM dithiothreitol; peaks analysed by SDS–PAGE; mass photometry at 100–200 nM.

In test [2] the target is His6-ThsB1 (Sau–Thoeris ThsB1 with an N-terminal hexahistidyl tag) (Staphylococcus aureus 08BA02176). The description is as above.

For the molecule “ThsB2-His6 (Sau–Thoeris ThsB2 with a C-terminal hexahistidyl tag) (natural protein)”, the stoichiometry N in test [1] is 2.

B1: Major head protein (Mhp) of phage Φ80α, gp47 (natural protein)
chain: ASNNVKPQVFNPDNVMMHEKKDGTLMNEFTTPILQEVMENSKIMQLGKYEPMEGTEKKFTFWADKPGAYWVGEGQKIETSKATWVNATMRAFKLGVILPVTKEFLNYTYSQFFEEMKPMIAEAFYKKFDEAGILNQGNNPFGKSIAQSIEKTNKVIKGDFTQDNIIDLEALLEDDELEANAFISKTQNRSLLRKIVDPETKERIYDRNSDSLDGLPVVNLKSSNLKRGELITGDFDKLIYGIPQLIEYKIDETAQLSTVKNEDGTPVNLFEQDMVALRATMHVALHIADDKAFAKLVPADKRTDSVPGEV
Regarding B1, in test [2], the stoichiometry N came out at 1.
